Assay results taken from the supplement of paper PMC9170038.

System: MS2 coat protein
Experiment: apparent KD of MS2 coat protein; designed switch direction (-1 OFF switch, 1 ON switch): -1; higher = weaker reporter binding
Summary of the method: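 SNAP-549-labelled MS2 coat protein was titrated, doubling from 0.7 or 1.5 nM to 3 µM, over designed RNA switches transcribed on Illumina chips by stalled E. coli RNA polymerase. Runs were done without input, with 200 uM small-molecule ligand, or with an oligonucleotide input. Apparent KD is the per-design median over clusters of curve-fitted normalised fluorescence.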

[1] = input ligand: microRNA oligo, concentration not stated
[2] = Eterna round: R95, input ligand: FMN 200 uM
[3] = Eterna round: R95, input ligand: microRNA oligo, concentration not stated
[4] = Eterna round: R95, input ligand: none

Sequence	apparent KD of MS2 coat protein (input ligand: FMN 200 uM)	apparent KD of MS2 coat protein (input ligand: none)	apparent KD of MS2 coat protein [1]	apparent KD of MS2 coat protein [2]	apparent KD of MS2 coat protein [3]	apparent KD of MS2 coat protein [4]
UAACAGUAAGGAUAUCCAGAUCCAGACAUGAGGAUCACCCAUGUCAUAUACCUUUGACACGGAGAAGGUACGAAAA [EX5 A.4] (Eterna round: R97, puzzle: Exclusion 5)	52.3 nM	52.2 nM				
UAACAUGUCUGAGGAUAUCUGCACGAUUAGUGCAGAGAAGGCAGAACAUGAGGAUCACCCAUGUAGAUCAUUAAUUAAUUAAUU [ENG1/7-B1] (Eterna round: R96, puzzle: Exclusion NG 1)	712 nM	344 nM	288 nM			
UAACCUAUUGUCAGGAUAUCUACGUGGUAUCAUGAGGAGAAGGGACAUGAGGAUCACCCAUGUGGAAGGGAAAA [Beques] (puzzle: Brourd's mod of Exclusion 4)				60.2 nM	31.1 nM	48.3 nM
UAAGAGUGAGGAUAUACGUCGCUGGCCCGGAUGGACGCAUGACAUGAGGAUCACCCAUGUAGAAGGCACAAAAC [Enxela Mod 14 - Jieux - Exclusion 2] (Eterna round: R97, puzzle: Exclusion 2)	34.7 nM	29.7 nM				
UAAGGUCGUCAAUACCUAACCACAUGAGGAUCACCCAUGUCUGAGGAUAUGAAGGCGGCCCGCCAUUAGAAGGCAGCAAGGGAA [Ustiarmadi] (Eterna round: R96, puzzle: Exclusion NG 3)	13.2 nM	14.4 nM	7.89 nM			
UAAGUUUACCGAGGAUAUGGUUUUUCCUUUUUACCAGAAGGCGGACUCAACAUGAGGAUCACCCAUGUAUAAAGGGUAUUUGGU [JR_ExcNG1_Sub045] (Eterna round: R96, puzzle: Exclusion NG 1)	57.8 nM	54 nM	49.6 nM			
UAAUAAUAGCAAGGAUAUGGUUAUUAUAAUAUACCAGAAGGUGCACAUGAGGAUCACCCAUGUUUUAUAAUUUGUAAUUUAAAU [First something] (Eterna round: R96, puzzle: Exclusion NG 1)			22.9 nM			
UAAUACAAGUAAAGAUCCUACAUGAGGAUCACCCAUGUGCUCGUCUUGUAAAGUACUAUCACGAAAGUGAUAGUACU [Mat - Sensor v3 - turn-off var 1 - Eli Mod - D86] (puzzle: Sensor v3, turn-off variant 1)				30.3 nM	22 nM	44.8 nM
UAAUAUAGAGGAUAUACAUGAGGAUCACCCAUGUGAGUCCAUUAUGGGAUGAGAUCGGGUAGAAGGCUACGAAU [Eternabot (L2) Solution 28] (Eterna round: R97, puzzle: Exclusion 3)	143 nM	57.7 nM				
UAAUGUAUAUAGGAUAUCUAGCUGGAAACAGCUAGAGAAGGAUGUACAUGAGGAUCACCCAUGUAAAUCAAUAG [Ex6/9-A2] (Eterna round: R97, puzzle: Exclusion 6)	48.3 nM	21.8 nM				
UAAUGUGCGAGAGGAUAUCGUGUACAAAGUACACGAGAAGGCUUCACAUGAGGAUCACCCAUGUAUCGAGGUGAAACACCUUGA [Omei Exc(NG)1 Bv3] (Eterna round: R96, puzzle: Exclusion NG 1)	448 nM	212 nM	254 nM			
UAAUUGAUUAAUAGAUUAUACAUGAGGAUCACCCAUGUAGGUCCUACGUGCCAUUUAAGCAGCUCGUCUUAUUCCCA [Sensor-V1 #68] (Eterna round: R97, puzzle: Sensor, turn-off variant 1)	41.8 nM	49 nM				
UAAUUGUGAGGAUAUUCGUAUAACACGGAGACGUGUUGUACGGAGAAGGCACAUGAGGAUCACCCAUGUUCCUU [Mat - Exclusion 4 - JL Mod - D18] (Eterna round: R97, puzzle: Exclusion 4)	96 nM	15.2 nM				
UACAGUCAUCCUUAUUGUUACAUGAGGAUCACCCAUGUUAGUAUAGUUAAGUUAUGUGAGUUUGUUGUUCGUUUUAU [JR_STOV1_v2_Sub078] (Eterna round: R97, puzzle: Sensor, turn-off variant 1)	125 nM	146 nM				
UACAUGAGGAUCACCCAUGUUUUAUCAUGUGUAAUAAUAAUGUAGGAUAUGUAUUAUUUUAUUUAACAGAAGGACAAUAAUAAA [JMF's solution 2] (Eterna round: R96, puzzle: Exclusion NG 3)	426 nM	524 nM	467 nM			
UACAUGAGGAUCACCCAUGUUUUAUCAUGUGUAAUAAUAAUGUAGGAUAUGUAUUUAUUUAUUUAACAGAAGGACAAUAAUAAA [JMF's solution 3] (Eterna round: R96, puzzle: Exclusion NG 3)	462 nM	423 nM	435 nM			
UACAUGAGGAUCACCCAUGUUUUGUCGUGUAUGGUAUUUAUCUAGGAUAUCAAUUGAGUUAUUUAUGAGAAGGAGAAUAUUAAU [JMF's solution 59] (Eterna round: R96, puzzle: Exclusion NG 3)			31.6 nM			

Sequence	apparent KD of MS2 coat protein (input ligand: FMN 200 uM)	apparent KD of MS2 coat protein (input ligand: none)	apparent KD of MS2 coat protein [1]	apparent KD of MS2 coat protein [2]	apparent KD of MS2 coat protein [3]	apparent KD of MS2 coat protein [4]
UACAUGAGGAUCACCCAUGUUUUGUCGUGUAUGGUAUUUAUCUAGGAUAUCAAUUUGUUAAUUUAUGAGAAGGAGAAUAUUAAU [JMF's solution 69] (Eterna round: R96, puzzle: Exclusion NG 3)			29.6 nM			
UACAUGAGGAUCACCCAUGUUUUGUCGUGUAUGGUAUUUAUCUAGGAUAUCAUUUGAUUUAGUUAUGAGAAGGAGAAUAUUAAU [JMF's solution 86] (Eterna round: R96, puzzle: Exclusion NG 3)	33.6 nM	29.9 nM	17.2 nM			
UACCUACAUGAGGAUCACCCAUGUCAGGAUAUCCGUGUGAACGAGUCGUUACACAGGCGGAGAAGGGACAUCGG [Eternabot (L1) Solution 65] (Eterna round: R97, puzzle: Exclusion 1)	94.5 nM	54.2 nM				
UACGAGUUAGGAUAUGCUUUGGGCUCGCUUUCCUUCGAUAAACUUGAGGAUCACCCAAGUAGAAGGAACUUGUA [Mod 34 - Jieux - Exclusion 2] (Eterna round: R97, puzzle: Exclusion 2)	49.2 nM	29.6 nM				
UACGGGUCAGGAUAUGCGAGAGAUUGGGAAAUAGGAAGGUAGCAGAAGGGACAUGAGGAUCACCCAUGUGAAGC [JR_Exclu4_Sub097] (puzzle: Exclusion 4)				32.2 nM	25.9 nM	28.8 nM
UACGUGUCAGGAUAUUUGAAGCGAAUCACGAGCAUUCGCGUGGAGAAGGGACAUGAGGAUCACCCAUGUAGGCG [Eternabot (L1) Solution 32] (Eterna round: R97, puzzle: Exclusion 4)	370 nM	242 nM				
UACUGACAUGAGGAUCACCCAUGUGAGGAUAUUCUCCUGCCAAAUUAAUGGUGGGUGUGAAGAAGGCACAAGGA [EX1 C.12] (Eterna round: R97, puzzle: Exclusion 1)	98 nM	29.1 nM				
UACUGGACAGGAUAUGUUCUUGAGCACUUGAGGAUCACCCAAGUCAUCAAGAACUCAGGCACAGAAGGGUUUAUGU [salish99_ex5_r4_005] (Eterna round: R97, puzzle: Exclusion 5)	70.2 nM	18.5 nM				
UACUUACGAGGAUAUCGAUUGUGGUACAUGAGGAUCACCCAUGUAUGUGAUAUUGUAUUUCGAGAAGGCGUUCAGU [JR_E5_Sub061] (puzzle: Exclusion 5)					22.7 nM	
UACUUCCGAGGAUAUACAUGAGGAUCACCCAUGUGCUUCAGCAUCUAAUGAUGCAUGGGUAGAAGGCGGUAGUU [LRO-Excl3-20] (puzzle: Exclusion 3)					56 nM	
UACUUGUUAGGAUAUCUUACAUUUGCAUCAUAGUAACCUUUGGAGAAGGGACAUGAGGAUCACCCAUGUUUGGU [tap-tap-tappy6] (Eterna round: R97, puzzle: Exclusion 4)	49.2 nM	72.6 nM				
UAGAAGUCAGGAUAUCCAUGGCGGCACUUGCGUGGUGGCGUGGAGAAGGGACAUGAGGAUCACCCAUGUAAAGG [salish99-ex4-045] (Eterna round: R96, puzzle: Exclusion 4)	192 nM	100 nM	63.1 nM			
UAGGAGUCAGGAUAUGCGAGAGAUGGAAGAAAGGGAAGAGAGCAGAAGGGACAUGAGGAUCACCCAUGUAAGGA [JR_Exclu4_Sub090] (puzzle: Exclusion 4)				34.2 nM	35.7 nM	36.1 nM
UAGGUACAUGAGGAUCACCCAUGUGAGGAUAUAGAGGAAGAUUGCGAGAGGGAGAGGACUAGAAGGCACAGUGG [JR_Exclu1_Sub035] (puzzle: Exclusion 1)				37 nM	28.1 nM	39.9 nM
UAGUACAGAGGAUAUACAUGAGGAUCACCCAUGUGUUUCAGCUAGGAGACUAGCGAAAGUAGAAGGCUGUACUA [salish99_ex3_r4_008] (Eterna round: R97, puzzle: Exclusion 3)	22.9 nM	9.42 nM				
UAGUGAGCGUGAGGAAUAUACAUGAGGAUCACCCAUGUUUGCUACUAUCUUGCUCGUCUUAUAACAACAAUUAACUG [mod-hagla-honey#50] (Eterna round: R97, puzzle: Sensor, turn-off variant 1)	14.8 nM	16.9 nM				
UAGUUAUUCACAGGAUAUCGCCUCUUAUUACAUGAGGAUCACCCAUGUUUAUUUUGUUACAUGUUCGAGAAGGGUGUAGUCUUU [JR_ExcNG2_Sub046] (Eterna round: R96, puzzle: Exclusion NG 2)	439 nM	535 nM	436 nM			
